The values that follow come from publication PMC6684798, “Structural basis for the target specificity of actin histidine methyltransferase SETD3” (Nature Communications, 2019).

For assay [1], the target named is T1, SETD3 N255A (Homo sapiens, UniProt Q86TU7, N256A).
T1 construct: GST (cleaved yes); made in house; host or cells: Escherichia coli BL21(DE3) CodonPlus
T1 sequence (Q86TU7 1-594 N256A): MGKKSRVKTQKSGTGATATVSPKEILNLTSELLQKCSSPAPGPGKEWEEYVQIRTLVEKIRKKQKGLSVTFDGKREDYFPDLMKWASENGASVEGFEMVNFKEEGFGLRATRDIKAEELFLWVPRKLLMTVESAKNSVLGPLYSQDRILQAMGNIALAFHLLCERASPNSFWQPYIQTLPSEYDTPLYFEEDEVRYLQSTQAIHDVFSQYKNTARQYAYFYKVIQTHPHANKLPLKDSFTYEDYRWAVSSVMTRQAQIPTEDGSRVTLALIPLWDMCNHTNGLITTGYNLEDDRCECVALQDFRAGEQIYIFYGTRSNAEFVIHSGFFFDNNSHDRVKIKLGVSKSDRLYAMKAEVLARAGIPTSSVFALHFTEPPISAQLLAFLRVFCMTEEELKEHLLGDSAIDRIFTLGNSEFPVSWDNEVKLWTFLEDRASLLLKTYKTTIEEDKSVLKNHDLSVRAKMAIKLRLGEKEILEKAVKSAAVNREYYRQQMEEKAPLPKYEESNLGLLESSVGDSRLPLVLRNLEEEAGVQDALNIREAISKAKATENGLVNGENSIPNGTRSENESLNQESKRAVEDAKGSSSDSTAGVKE
The assay is described as follows: MALDI-TOF analysis of K73(66–88) methylation by N255A (Fig. 3d). Format: biochemical. The following applies: pH 10.5, 37 °C, 3 μM N255A, 10 µM peptide, 40 µM SAM. Here is the method: Fig. 3 Kinetics of SETD3 on H73 and K73 peptides. a Comparison of activities of three variants (WT, N255A, and N255V) on H73(66–80) peptide. The assays were performed at room temperature (~22 °C) and pH 8.0 using [WT] = 0.18 μM, [N255A] = 0.18 μM, and [N255V] = 0.72 μM. b Comparison of SETD3 WT activities on two K73 peptides (residues 66–80 and 66–88). The assays were performed at 37 °C and pH 10.5 using [WT] = 3 and 15 μM, respectively, for the long and short peptides. c Comparison of activities of three variants (N255A, N255V, and WT) on K73(66–88) peptide. The assays were performed at 37 °C and pH 10.5 using [N255A] = 90 nM, [N255V] = 0.72 μM and [WT] = 4 μM. Data represent the mean ± SD of N number of independent determinations (N = 3 for the WT and N = 2 for the mutants) performed in duplicate. Source data are provided as a Source Data file. d, e Mass spectrometry analysis of K73(66–88) methylation kinetic showing representative spectra at various time points for N255A variant (panel d) and SETD3 WT enzyme (panel e). The assays were performed at 37 °C and pH 10.5 using 3 μM for both N255A and WT. f In vitro methylation reactions with SETD3, indicated full-length actin proteins, and radiolabeled methyl donor (^3H-SAM). Right, Reactions were resolved by SDS–PAGE and activity was visualized by autoradiography. […] The first column head is 'SETD3', and the substrate peptide is printed only on the plot axis. / Panel b: the first column head is 'SETD3 (WT)', and the rows are K73 peptide substrates.
(§1) Recombinant human SETD3 (pXC2003) was expressed as a GST-fusion[22] in Escherichia coli BL21(DE3) CodonPlus^TM cells (Stratagene). […]
Actin K73 peptide (residues 66–88) was used as a substrate for SETD3 (Fig. 3d, e). […] We note that samples diluted into a 0.1% (v/v) TFA solution in water could not be detected by MALDI-TOF, thus the acetonitrile additive is necessary.

Assay [2] relates to SETD3 variants (WT, N255A, N255V). The experiment in a line: Comparison of activities of SETD3 variants (Fig. 3a, c). It is filed as biochemical, human. The settings on record: Fig. 3c, K73(66–88), pH 10.5, 37 °C. On the procedure: (§2) Fig. 3 Kinetics of SETD3 on H73 and K73 peptides. a Comparison of activities of three variants (WT, N255A, and N255V) on H73(66–80) peptide. The assays were performed at room temperature (~22 °C) and pH 8.0 using [WT] = 0.18 μM, [N255A] = 0.18 μM, and [N255V] = 0.72 μM. b Comparison of SETD3 WT activities on two K73 peptides (residues 66–80 and 66–88). The assays were performed at 37 °C and pH 10.5 using [WT] = 3 and 15 μM, respectively, for the long and short peptides. c Comparison of activities of three variants (N255A, N255V, and WT) on K73(66–88) peptide. The assays were performed at 37 °C and pH 10.5 using [N255A] = 90 nM, [N255V] = 0.72 μM and [WT] = 4 μM. Data represent the mean ± SD of N number of independent determinations (N = 3 for the WT and N = 2 for the mutants) performed in duplicate. […]
as §1
(§3) A reaction mixture contained 20 mM Tris/HCl (pH 8.0) or 20 mM glycine/NaOH (pH 10.5), 50 mM NaCl, 0.1 mg/ml BSA, 1 mM DTT, 0.18–15 µM SETD3 (as indicated in Fig. 3), 40 µM SAM and varying concentration of peptides. […] The dependence of the velocity of product formation per enzyme on substrate concentration was analyzed according to the Michaelis–Menten equation.

Assay [3] has as its target T1, SETD3 N255A. The assay is described as follows: Steady-state kinetics of SETD3 N255A on K73(66–88) (Fig. 3c; pH 10.5, 37 °C, [N255A] = 90 nM, 40 µM SAM). The following applies: relative to WT SETD3, Fig. 3c. Format: biochemical. On the procedure:
as §2, §1, §3

Regarding “K73(66–88): K73-containing actin H73K peptide, residues 66–88 (TLKYPIEKGIVTNWDDMEKIWHH; UniProt P60709 66-88, looked up, variant H73K)”, the K73 methylation product result in the assay with SETD3 N255A [1] (10 min) was “monomethyl lysine”; with SETD3 N255A [1] (30 min) it was “dimethyl”; in the assay with SETD3 N255A [1] (1 h) it was “complete conversion of unmodified substrate to trimethyl lysine”. Further, the “order of activity of SETD3 variants on K73” value in assay [2] is recorded as “N255A≫N255V>WT”. The “activity of N255A on K73 peptide” value with SETD3 N255A [3] is “significantly enhanced activity”.
